The record followed here is article PMC8213154, “Replacement of Arg in the conserved N-terminal RLFDQxFG motif affects physico-chemical properties and chaperone-like activity of human small heat shock protein HspB8 (Hsp22)” (PLoS ONE, 2021).

Data set [1] concerns the molecule itself. The data set is described as follows: SEC-MALS; Superdex 200 Increase 10/30; 20 mM Tris/acetate pH 7.6, 150 mM NaCl, 0.1 mM EDTA, 0.1 mM PMSF, 2 mM DTT; 200–250 μg of HspB8 WT or R29A, or 400 μg of Δ28–32 loaded. In general terms: SEC sorts molecules by how far they enter the pores of the column.
Data set [2] deals with the molecule itself. The data set is described as follows: SEC-MALS; Superdex 200 Increase 10/30; buffer D (20 mM Tris/acetate pH 7.6, 150 mM NaCl, 0.1 mM EDTA, 0.1 mM PMSF) without any reducing agents; 200–250 μg of oxidized HspB8Cys loaded.

Positions count from the first letter of the chain named. In names and notes the source's numbering stands.

B1: HspB8 R29A mutant (natural protein, human, UniProt Q9UJY1 1-196, looked up)
chain: MADGQMPFSCHYPSRLRRDPFRDSPLSSALLDDGFGMDPFPDDLTASWPDWALPRLSSAWPGTLRSGMVPRGPTATARFGVPAEGRTPPPFPGEPWKVCVNVHSFKPEELMVKTKDGYVEVSGKHEEKQQEGGIVSKNFTKKIQLPAEVDPVTVFASLSPEGLLIIEAPQVPPYSTFGESSFNNELPQDSQEVTCT
notes: human HspB8 (Hsp22), Uniprot Q9UJY1, carrying the R29A mutation; calculated Mw of monomer 21.5 kDa; No tag is named
Take B1: the binding result in data set [1] is on record as “binds”.

B2: oxidized Cys mutant of HspB8 (C10S/C99S/C195S/N138C) (natural protein, human, UniProt Q9UJY1 1-196, looked up)
chain: B1 chain with C10S, A29R, C99S, N138C, C195S
modifications: engineered disulfide bridge between the Cys138 residues of two chains (oxidized form)
notes: human HspB8 (Hsp22), Uniprot Q9UJY1, with the C10S/C99S/C195S/N138C amino acid substitutions; calculated Mw of monomer 21.5 kDa; The dimer is covalent (S-S crosslinked) after oxidation; No tag is named; also called HspB8Cys; oxidized HspB8Cys; source: oxidized by overnight dialysis
Turning to B2, the “stoichiometry N” value in data set [2] is 2.

B3: HspB8 Δ28–32 mutant (natural protein, human, UniProt Q9UJY1 1-196, looked up)
chain: MADGQMPFSCHYPSRLRRDPFRDSPLSDGFGMDPFPDDLTASWPDWALPRLSSAWPGTLRSGMVPRGPTATARFGVPAEGRTPPPFPGEPWKVCVNVHSFKPEELMVKTKDGYVEVSGKHEEKQQEGGIVSKNFTKKIQLPAEVDPVTVFASLSPEGLLIIEAPQVPPYSTFGESSFNNELPQDSQEVTCT
notes: human HspB8 (Hsp22), Uniprot Q9UJY1, with the pentapeptide 28SRLLD32 deleted; calculated Mw of monomer 21.0 kDa; Made by PCR from the HspB8 WT cDNA and ligated into pET23 via NdeI and XhoI; No tag is named; also called Δ mutant; deletion mutant of HspB8
B3: the “stoichiometry N” value in data set [1] was 2.

As usually defined, the stoichiometry N is the number of molecules, sites or subunits per partner or assembly.
